Results reported in the supplement of paper PMC10567573.

B1: KCNA4 (parent)
chain: YQLGEEALLKFREDEGFVREEEDR

Variants of: B1
Assay: protein stability index of a GFP-peptide fusion (GPS, HEK-293T) (PSI 1-6); higher = more stable
Conditions: c terminus: a fixed tail appended
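Also: lentivirally expressed fusions sorted by FACS into six bins by GFP to DsRed ratio, PSI derived from sequencing read proportions per bin multiplied by bin number.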

| Variant | protein stability index |
| --- | --- |
| YQLGEEALLKFREDHGFVREEEDR [E15H] | 3.87 |
| YQLGEEALLKFREDQGFVREEEDR [E15Q] | 4.4 |
| YQLGEEALLKFREDWGFVREEEDR [E15W] | 3.84 |
| YQLGEEALLKFREDKGFVREEEDR [E15K] | 4.16 |
| YQLGEEALLKFREDVGFVREEEDR [E15V] | 3.8 |
| YQLGEEALLKFREDMGFVREEEDR [E15M] | 3.96 |
| YQLGEEALLKFREDLGFVREEEDR [E15L] | 3.88 |
| YQLGEEALLKFREDIGFVREEEDR [E15I] | 3.83 |
| YQLGEEALLKFREDTGFVREEEDR [E15T] | 3.73 |
| YQLGEEALLKFREDDGFVREEEDR [E15D] | 4.15 |
| YQLGEEALLKFREDSGFVREEEDR [E15S] | 4.09 |
| YQLGEEALLKFREDNGFVREEEDR [E15N] | 4.42 |
| YQLGEEALLKFREDGGFVREEEDR [E15G] | 4.42 |
| YQLGEEALLKFREDFGFVREEEDR [E15F] | 3.83 |
| YQLGEEALLKFREDYGFVREEEDR [E15Y] | 4.3 |
| YQLGEEALLKFREDRGFVREEEDR [E15R] | 4.15 |
| YQLGEEALLKFREDCGFVREEEDR [E15C] | 3.86 |
| YQLGEEALLKFREDPGFVREEEDR [E15P] | 3.99 |
| YQLGEEALLKFREDETFVREEEDR [G16T] | 4.58 |
| YQLGEEALLKFREDEWFVREEEDR [G16W] | 4.12 |
| YQLGEEALLKFREDEEFVREEEDR [G16E] | 4.84 |
| YQLGEEALLKFREDEVFVREEEDR [G16V] | 4.5 |
| YQLGEEALLKFREDEKFVREEEDR [G16K] | 3.93 |
| YQLGEEALLKFREDENFVREEEDR [G16N] | 4.47 |

| Variant | protein stability index |
| --- | --- |
| YQLGEEALLKFREDEAFVREEEDR [G16A] | 4.65 |
| YQLGEEALLKFREDERFVREEEDR [G16R] | 4.08 |
| YQLGEEALLKFREDELFVREEEDR [G16L] | 4.85 |
| YQLGEEALLKFREDEFFVREEEDR [G16F] | 4.31 |
| YQLGEEALLKFREDEHFVREEEDR [G16H] | 4.8 |
| YQLGEEALLKFREDEPFVREEEDR [G16P] | 4.62 |
| YQLGEEALLKFREDEQFVREEEDR [G16Q] | 4.73 |
| YQLGEEALLKFREDEDFVREEEDR [G16D] | 5.21 |
| YQLGEEALLKFREDEMFVREEEDR [G16M] | 4.48 |
| YQLGEEALLKFREDEIFVREEEDR [G16I] | 4.61 |
| YQLGEEALLKFREDEYFVREEEDR [G16Y] | 4.04 |
| YQLGEEALLKFREDECFVREEEDR [G16C] | 4.83 |
| YQLGEEALLKFREDESFVREEEDR [G16S] | 4.75 |
| YQLGEEALLKCREDEGFVREEEDR [F11C] | 4.63 |
| YQLGEEALLKLREDEGFVREEEDR [F11L] | 5.38 |
| YQLGEEALLKTREDEGFVREEEDR [F11T] | 5.27 |
| YQLGEEALLKQREDEGFVREEEDR [F11Q] | 5.1 |
| YQLGEEALLKRREDEGFVREEEDR [F11R] | 5.8 |
| YQLGEEALLKNREDEGFVREEEDR [F11N] | 5.75 |
| YQLGEEALLKIREDEGFVREEEDR [F11I] | 5.12 |
| YQLGEEALLKEREDEGFVREEEDR [F11E] | 5.67 |
| YQLGEEALLKVREDEGFVREEEDR [F11V] | 5.35 |
| YQLGEEALLKWREDEGFVREEEDR [F11W] | 4.21 |
| YQLGEEALLKGREDEGFVREEEDR [F11G] | 5.61 |

| Variant | protein stability index |
| --- | --- |
| YQLGEEALLKMREDEGFVREEEDR [F11M] | 4.44 |
| YQLGEEALLKYREDEGFVREEEDR [F11Y] | 5.46 |
| YQLGEEALLKHREDEGFVREEEDR [F11H] | 5.21 |
| YQLGEEALLKKREDEGFVREEEDR [F11K] | 5.48 |
| YQLGEEALLKAREDEGFVREEEDR [F11A] | 4.72 |
| YQLGEEALLKDREDEGFVREEEDR [F11D] | 5.83 |
| YQLGEEALLKSREDEGFVREEEDR [F11S] | 5.44 |
| YQLGEEALLKPREDEGFVREEEDR [F11P] | 5.57 |
| YQLGEEALLKFREDEGFTREEEDR [V18T] | 4.54 |
| YQLGEEALLKFREDEGFIREEEDR [V18I] | 4.5 |
| YQLGEEALLKFREDEGFFREEEDR [V18F] | 4.36 |
| YQLGEEALLKFREDEGFPREEEDR [V18P] | 4.63 |
| YQLGEEALLKFREDEGFEREEEDR [V18E] | 4.67 |
| YQLGEEALLKFREDEGFMREEEDR [V18M] | 4.58 |
| YQLGEEALLKFREDEGFRREEEDR [V18R] | 4.04 |
| YQLGEEALLKFREDEGFSREEEDR [V18S] | 4.32 |
| YQLGEEALLKFREDEGFDREEEDR [V18D] | 4.83 |
| YQLGEEALLKFREDEGFWREEEDR [V18W] | 3.94 |
| YQLGEEALLKFREDEGFYREEEDR [V18Y] | 4.63 |
| YQLGEEALLKFREDEGFHREEEDR [V18H] | 4.36 |
| YQLGEEALLKFREDEGFCREEEDR [V18C] | 4.53 |
| YQLGEEALLKFREDEGFGREEEDR [V18G] | 4.43 |
| YQLGEEALLKFREDEGFNREEEDR [V18N] | 4.82 |
| YQLGEEALLKFREDEGFLREEEDR [V18L] | 4.44 |

| Variant | protein stability index |
| --- | --- |
| YQLGEEALLKFREDEGFKREEEDR [V18K] | 4.13 |
| YQLGEEALLKFREDEGFQREEEDR [V18Q] | 4.78 |
| YQLGEEALLKFREDEGFAREEEDR [V18A] | 4.16 |
| YQLGEEALLKFIEDEGFVREEEDR [R12I] | 4.15 |
| YQLGEEALLKFTEDEGFVREEEDR [R12T] | 3.98 |
| YQLGEEALLKFGEDEGFVREEEDR [R12G] | 5.08 |
| YQLGEEALLKFDEDEGFVREEEDR [R12D] | 5.54 |
| YQLGEEALLKFFEDEGFVREEEDR [R12F] | 4.62 |
| YQLGEEALLKFHEDEGFVREEEDR [R12H] | 4.75 |
| YQLGEEALLKFKEDEGFVREEEDR [R12K] | 4.92 |
| YQLGEEALLKFSEDEGFVREEEDR [R12S] | 4.66 |
| YQLGEEALLKFMEDEGFVREEEDR [R12M] | 4.06 |
| YQLGEEALLKFPEDEGFVREEEDR [R12P] | 5.62 |
| YQLGEEALLKFWEDEGFVREEEDR [R12W] | 2.34 |
| YQLGEEALLKFYEDEGFVREEEDR [R12Y] | 4.59 |
| YQLGEEALLKFQEDEGFVREEEDR [R12Q] | 4.59 |
| YQLGEEALLKFEEDEGFVREEEDR [R12E] | 5.21 |
| YQLGEEALLKFVEDEGFVREEEDR [R12V] | 3.81 |
| YQLGEEALLKFNEDEGFVREEEDR [R12N] | 5.17 |
| YQLGEEALLKFLEDEGFVREEEDR [R12L] | 4.4 |
| YQLGEEALLKFCEDEGFVREEEDR [R12C] | 3.02 |
| YQLGEEALLKFAEDEGFVREEEDR [R12A] | 4.41 |
